In patent publication US20240376221A1 (Genmab, published 2024):

T1: human OX40, cell surface-expressed (human, UniProt P43489 29-277)
T1 construct: also called CD134; TNFRSF4
T1 sequence: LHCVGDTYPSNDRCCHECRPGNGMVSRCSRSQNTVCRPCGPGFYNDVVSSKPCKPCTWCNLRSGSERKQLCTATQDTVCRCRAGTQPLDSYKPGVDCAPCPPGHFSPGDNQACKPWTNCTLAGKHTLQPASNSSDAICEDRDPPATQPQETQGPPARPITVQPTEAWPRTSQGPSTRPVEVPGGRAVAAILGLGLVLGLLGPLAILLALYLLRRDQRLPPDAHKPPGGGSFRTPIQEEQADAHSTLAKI

T2: human OX40 with mouse CRD4 (human with mouse CRD4, UniProt P43489 29-277)
T2 construct: on transfected ExpiCHO-S cells; also called Shuffle 4; OX40-CRD4mm
T2 chain: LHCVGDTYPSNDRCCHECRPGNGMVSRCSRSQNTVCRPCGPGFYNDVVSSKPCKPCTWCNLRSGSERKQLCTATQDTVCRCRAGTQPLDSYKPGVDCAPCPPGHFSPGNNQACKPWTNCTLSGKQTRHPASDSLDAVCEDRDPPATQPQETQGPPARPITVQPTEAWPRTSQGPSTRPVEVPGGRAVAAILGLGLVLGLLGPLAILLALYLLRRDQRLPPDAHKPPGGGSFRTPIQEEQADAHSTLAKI

T3: cynomolgus monkey OX40, cell surface-expressed (cynomolgus monkey, UniProt P43489 29-277 (human entry))
T3 construct: full-length, on transfected HEK293F cells
T3 chain: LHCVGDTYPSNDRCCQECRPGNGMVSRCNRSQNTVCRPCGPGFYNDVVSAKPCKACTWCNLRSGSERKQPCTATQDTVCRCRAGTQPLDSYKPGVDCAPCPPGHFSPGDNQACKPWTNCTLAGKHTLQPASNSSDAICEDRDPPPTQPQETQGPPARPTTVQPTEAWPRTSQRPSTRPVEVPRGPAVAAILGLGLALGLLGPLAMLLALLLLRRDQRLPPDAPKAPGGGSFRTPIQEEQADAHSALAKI

T4: human OX40 with mouse CRD2 (human with mouse CRD2, UniProt P43489 29-277)
T4 construct: on transfected ExpiCHO-S cells; also called Shuffle 2; OX40-CRD2mm
T4 chain: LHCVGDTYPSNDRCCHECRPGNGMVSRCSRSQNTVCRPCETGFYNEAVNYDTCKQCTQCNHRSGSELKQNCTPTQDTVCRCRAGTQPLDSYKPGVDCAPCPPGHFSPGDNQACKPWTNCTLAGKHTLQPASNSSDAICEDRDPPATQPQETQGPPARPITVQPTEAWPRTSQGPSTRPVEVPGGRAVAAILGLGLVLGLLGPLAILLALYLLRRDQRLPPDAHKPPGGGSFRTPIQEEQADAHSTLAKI

T5: human OX40 with mouse CRD3 (human with mouse CRD3, UniProt P43489 29-277)
T5 construct: on transfected ExpiCHO-S cells; also called Shuffle 3; OX40-CRD3mm
T5 chain: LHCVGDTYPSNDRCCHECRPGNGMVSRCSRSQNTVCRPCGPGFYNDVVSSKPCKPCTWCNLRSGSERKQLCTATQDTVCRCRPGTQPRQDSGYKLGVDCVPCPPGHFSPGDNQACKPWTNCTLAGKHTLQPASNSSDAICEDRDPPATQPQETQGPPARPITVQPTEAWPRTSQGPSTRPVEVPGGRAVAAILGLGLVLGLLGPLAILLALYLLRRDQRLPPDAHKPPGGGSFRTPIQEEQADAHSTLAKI

T6: human OX40 with mouse CRD1 (human with mouse CRD1, UniProt P43489 29-277)
T6 construct: on transfected ExpiCHO-S cells; also called Shuffle 1; OX40-CRD1mm
T6 chain: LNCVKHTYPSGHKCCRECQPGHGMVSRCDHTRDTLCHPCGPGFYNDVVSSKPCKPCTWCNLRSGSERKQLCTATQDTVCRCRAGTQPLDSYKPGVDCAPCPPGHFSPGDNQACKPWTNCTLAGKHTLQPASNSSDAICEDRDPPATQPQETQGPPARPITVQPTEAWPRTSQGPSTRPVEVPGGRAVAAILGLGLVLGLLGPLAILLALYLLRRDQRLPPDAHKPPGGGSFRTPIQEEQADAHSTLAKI


Assays:
[1] = target: T1, human OX40, cell surface-expressed; assay: flow cytometry, ExpiCHO-S cells with human OX40
Description: (§1) The four shuffle constructs, as well as wild-type human and mouse OX40 were transiently expressed on ExpiCHO-S cells using the ExpiFectamine™ CHO Transfection Kit (ThermoFisher, cat. no. A29131), according to the manufacturer's protocol. […] Next, cells were washed twice in FACS buffer 1, were resuspended in a 30 μL solution of viability marker ToPro-3 (Invitrogen, cat. no. T3605, diluted 1:10,000) in FACS buffer 1 supplemented with 2 mM EDTA, and were analyzed on an iQue Screener Plus (Intellicyt Corporation, USA). Data were analyzed using FlowJo software and visualized using GraphPad Prism.

[2] = target: T2, human OX40 with mouse CRD4; assay: flow cytometry, ExpiCHO-S cells with human OX40 carrying mouse CRD4
Description: (§2) Data shown are the geometric mean of the fluorescence intensity (gMFI) from one representative experiment out of two experiments performed.
as §1

[3] = target: T3, cynomolgus monkey OX40, cell …; assay: flow cytometry, HEK293F cells with cynomolgus monkey OX40
Description: Transfected cells were seeded in 96-well plates (30,000 cells/well; ThermoFisher, cat. no. 163320) for sequential incubations, with washing steps in between using fluorescence-activated cell sorting (FACS) buffer 1 (phosphate buffered saline [PBS; Lonza, cat. no. BE17-517Q] supplemented with 0.1% bovine serum albumin [BSA; Roche, cat. no. 10735086001] and 0.02% sodium azide [NaN₃; Bio-World, cat. no. 41920044-3]) supplemented with 2 mM ethylenediaminetetraacetic acid (EDTA; Sigma-Aldrich, cat. no. 03690). […] Cells were then washed using EDTA-supplemented FACS buffer 1, resuspended in a 30 μL solution of viability marker ToPro-3 (Invitrogen, cat. no. T3605, diluted 1:10,000) in EDTA-supplemented FACS buffer 1, and subsequently analyzed on an iQue® 3 flow cytometer (Satorius). Data were analyzed using FlowJo software and were visualized using GraphPad Prism.

[4] = target: T4, human OX40 with mouse CRD2; assay: flow cytometry, ExpiCHO-S cells with human OX40 carrying mouse CRD2
Description: as §1

[5] = target: T5, human OX40 with mouse CRD3; assay: flow cytometry, ExpiCHO-S cells with human OX40 carrying mouse CRD3
Description: as §1

[6] = target: T6, human OX40 with mouse CRD1; assay: flow cytometry, ExpiCHO-S cells with human OX40 carrying mouse CRD1
Description: as §2, §1

Binder	EC50 (read off the curve) [1] [µg/mL]	EC50 (read off the curve) [2] [µg/mL]	EC50 (read off the curve) [3] [µg/mL]	EC50 (read off the curve) [4] [µg/mL]	EC50 (read off the curve) [5] [µg/mL]	EC50 (read off the curve) [6] [µg/mL]
IgG1-CD134-012-RR-K409R (antibody, chimeric 012; also called IgG1-CD134-012-P329R-E345R-K409R) heavy: QSLEESGGRLVTPGTPLTLICTVSGIDLSSGAMGWVRQAPGKGLEYIGYIYTGSGTTSYASWVNGRFTISMTSTTVDLKITSPTTEDTATYFCARDAASSYWGHFTLWGQGTLVTVSSASTKGPSVFPLAPSSKSTSGGTAALGCLVKDYFPEPVTVSWNSGALTSGVHTFPAVLQSSGLYSLSSVVTVPSSSLGTQTYICNVNHKPSNTKVDKRVEPKSCDKTHTCPPCPAPELLGGPSVFLFPPKPKDTLMISRTPEVTCVVVDVSHEDPEVKFNWYVDGVEVHNAKTKPREEQYNSTYRVVSVLTVLHQDWLNGKEYKCKVSNKALRAPIEKTISKAKGQPRRPQVYTLPPSREEMTKNQVSLTCLVKGFYPSDIAVEWESNGQPENNYKTTPPVLDSDGSFFLYSRLTVDKSRWQQGNVFSCSVMHEALHNHYTQKSLSLSPG light: DIVMTQTPASVEAAVGGTVTIKCQASENIYSSLAWYQQKPGQPPKLLIYRTSTLASGVPSRFKGSGSGTQFTLTISDLESDDAATYYCQSYYHNSGGGYDYGFGGGTEVVAKRTVAAPSVFIFPPSDEQLKSGTASVVCLLNNFYPREAKVQWKVDNALQSGNSQESVTEQDSKDSTYSLSSTLTLSKADYEKHKVYACEVTHQGLSSPVTKSFNRGEC	~0.06	~0.1	~0.05	~0.1	~0.1	–
IgG1-CD134-007-RR (antibody, chimeric 007 with RR constant region; also called IgG1-CD134-007-P329R-E345R) heavy: not shown light: AQVLTQTPSPVSAAVGGTVTISCQSSESVWNNNWLAWYQQKPGQPPNLLIYEASTLASGVSSRFKGSGSGTQFTLTVSEVQSDDAATYYCQGGYYDSSPIWTFGGGTEVVVKRTVAAPSVFIFPPSDEQLKSGTASVVCLLNNFYPREAKVQWKVDNALQSGNSQESVTEQDSKDSTYSLSSTLTLSKADYEKHKVYACEVTHQGLSSPVTKSFNRGEC	~0.005	~0.009	–	–	~0.02	~0.005
